Data: patent US20260008815A1, “CYCLIC PEPTIDE OR SALT THEREOF, AND USES THEREOF” (FUJIFILM Corporation, priority 2023, published 2026)
Bridge positions count the residues as written; N and C are the ends. Ends that are not written are not given here. COCH2 = acetyl group that carries the bridge

The substances below were run against T1, Recombinant Human FGFR2 alpha (IIIc) Fc Chimera Protein (Homo sapiens, UniProt P21802) (assay: ELISA binding affinity of enzymatically synthesized peptide to FGFR). Details: ELISA luminescence signal at 10 nmol/L peptide, SEQ ID NO: 47 at 10 nmol/L standardized to 1; enzyme synthesis product.
T1 construct: Fc (chimera); purchased R&D systems 712-FR-050
Procedure, shortened: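 FGFR2 alpha (IIIc) Fc chimera (5 ng/well) was immobilized, and Myc-tagged peptide was bound 3 h at room temperature, then detected with anti-Myc antibody (2 h) and chemiluminescent substrate. Signal was corrected against FGFR-free wells. Score A–D was the luminescence at 10 nmol/L peptide, normalized to cyclic peptide SEQ ID NO: 47.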

T1 sequence (P21802 with tags, fused parts or gaps limits assumed): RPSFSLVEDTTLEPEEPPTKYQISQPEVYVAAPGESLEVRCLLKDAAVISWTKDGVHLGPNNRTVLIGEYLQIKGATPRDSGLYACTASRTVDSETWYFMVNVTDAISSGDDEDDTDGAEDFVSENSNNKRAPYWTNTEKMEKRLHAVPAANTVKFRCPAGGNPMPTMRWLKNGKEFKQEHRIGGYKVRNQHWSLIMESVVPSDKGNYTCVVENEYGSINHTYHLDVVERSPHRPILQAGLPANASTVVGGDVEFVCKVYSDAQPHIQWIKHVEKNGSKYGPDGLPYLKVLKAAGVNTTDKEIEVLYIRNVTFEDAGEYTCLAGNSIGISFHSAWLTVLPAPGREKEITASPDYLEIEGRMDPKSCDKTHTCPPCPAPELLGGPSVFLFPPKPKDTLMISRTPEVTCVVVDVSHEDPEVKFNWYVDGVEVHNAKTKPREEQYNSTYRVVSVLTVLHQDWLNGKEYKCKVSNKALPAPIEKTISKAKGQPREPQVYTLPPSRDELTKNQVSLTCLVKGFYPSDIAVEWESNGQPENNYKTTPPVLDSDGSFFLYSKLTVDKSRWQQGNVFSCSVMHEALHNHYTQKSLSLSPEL

Row | Substance | Evaluation result of binding affinity to FGFR
1 | 112 (HCQPEYELYYIYLYLNALK(COCH2)I; thioether 2-19 (inferred)) [compound 112] | C (0.1 or more and less than 0.5)
2 | 113 (RCINYWSGQQFYFFQQYK(COCH2)F; thioether 2-18 (inferred)) [compound 113] | C (0.1 or more and less than 0.5)
3 | 114 (YCTDNYIDDIQFWYLFLYK(COCH2)H; thioether 2-19 (inferred)) [compound 114] | A (0.7 or more)
4 | 115 (NCPNYWSQIQWHYFQAYK(COCH2)Q; thioether 2-18 (inferred)) [compound 115] | A (0.7 or more)
5 | 116 (QCYQNWYLYQYLVERYYK(COCH2)D; thioether 2-18 (inferred)) [compound 116] | C (0.1 or more and less than 0.5)
6 | 117 (LCRNYINPQQWRYFALYK(COCH2)N; thioether 2-18 (inferred)) [compound 117] | A (0.7 or more)
7 | 118 (LCPVPQQTDYLRWYQIIHK(COCH2)Q; thioether 2-19 (inferred)) [compound 118] | C (0.1 or more and less than 0.5)
8 | 119 (QCRYFWQYVLERYRVRLPK(COCH2)E; thioether 2-19 (inferred)) [compound 119] | A (0.7 or more)
9 | 120 (QCWYIQQYIWERYFLWHNK(COCH2)E; thioether 2-19 (inferred)) [compound 120] | C (0.1 or more and less than 0.5)
10 | 121 (DCYWDDQQYSFLQLYK(COCH2)R; thioether 2-16 (inferred)) [compound 121] | A (0.7 or more)
11 | 122 (QCENWVNSTQFEFFWQYK(COCH2)T; thioether 2-18 (inferred)) [compound 122] | B (0.5 or more and less than 0.7)
12 | 123 (QCQNFITEVQFTYFWHYK(COCH2)T; thioether 2-18 (inferred)) [compound 123] | A (0.7 or more)
13 | 124 (DCRDLQLFYIYQYLDALK(COCH2)K; thioether 2-18 (inferred)) [compound 124] | C (0.1 or more and less than 0.5)
14 | 125 (YCRDNYFYLEQWQYLYLYK(COCH2)H; thioether 2-19 (inferred)) [compound 125] | A (0.7 or more)
15 | 126 (LCEINWLSQEQYGYFIEYK(COCH2)T; thioether 2-19 (inferred)) [compound 126] | A (0.7 or more)
16 | 127 (YCPYNFYNIIQFHYFLTYK(COCH2)T; thioether 2-19 (inferred)) [compound 127] | A (0.7 or more)
17 | 128 (PCVQNYFNDLQWIFLQHYK(COCH2)R; thioether 2-19 (inferred)) [compound 128] | A (0.7 or more)
18 | 129 (ECPWNFVNQLQWQYFITYK(COCH2)V; thioether 2-19 (inferred)) [compound 129] | A (0.7 or more)
19 | 130 (HCDGNWWNSQQFFYLLLYK(COCH2)H; thioether 2-19 (inferred)) [compound 130] | A (0.7 or more)

Row | Substance | Evaluation result of binding affinity to FGFR
20 | 131 (YCEENYLDPEQYQYFIYFK(COCH2)Y; thioether 2-19 (inferred)) [compound 131] | A (0.7 or more)
21 | 132 (ECQENFVDRQQYWYFLSYK(COCH2)F; thioether 2-19 (inferred)) [compound 132] | A (0.7 or more)
22 | 133 (ECLGNYFSHEQYQYLLQYK(COCH2)I; thioether 2-19 (inferred)) [compound 133] | A (0.7 or more)
23 | 134 (LCADQYDYLLQYVFWRTYK(COCH2)I; thioether 2-19 (inferred)) [compound 134] | C (0.1 or more and less than 0.5)
24 | 135 (QCTYLAQYLVERYHLTK(COCH2)T; thioether 2-17 (inferred)) [compound 135] | C (0.1 or more and less than 0.5)
25 | 136 (GCEENYLDPEQYQYFIYFK(COCH2)Y; thioether 2-19 (inferred)) [compound 136] | A (0.7 or more)
26 | 137 (PCEENYLDPEQYQYFIYFK(COCH2)Y; thioether 2-19 (inferred)) [compound 137] | A (0.7 or more)
27 | 138 (LCEENYLDPEQYQYFIYFK(COCH2)Y; thioether 2-19 (inferred)) [compound 138] | A (0.7 or more)
28 | 139 (ICEENYLDPEQYQYFIYFK(COCH2)Y; thioether 2-19 (inferred)) [compound 139] | A (0.7 or more)
29 | 140 (VCEENYLDPEQYQYFIYFKY; Description of Artificial Sequence: Cyclic peptide) [compound 140] | A (0.7 or more)
30 | 141 (FCEENYLDPEQYQYFIYFKY; Description of Artificial Sequence: Cyclic peptide) [compound 141] | A (0.7 or more)
31 | 142 (WCEENYLDPEQYQYFIYFKY; Description of Artificial Sequence: Cyclic peptide) [compound 142] | A (0.7 or more)
32 | 143 (NCEENYLDPEQYQYFIYFKY; Description of Artificial Sequence: Cyclic peptide) [compound 143] | A (0.7 or more)
33 | 144 (QCEENYLDPEQYQYFIYFKY; Description of Artificial Sequence: Cyclic peptide) [compound 144] | A (0.7 or more)
34 | 145 (SCEENYLDPEQYQYFIYFKY; Description of Artificial Sequence: Cyclic peptide) [compound 145] | A (0.7 or more)
35 | 146 (TCEENYLDPEQYQYFIYFKY; Description of Artificial Sequence: Cyclic peptide) [compound 146] | A (0.7 or more)
36 | 147 (DCEENYLDPEQYQYFIYFKY; Description of Artificial Sequence: Cyclic peptide) [compound 147] | A (0.7 or more)
37 | 148 (ECEENYLDPEQYQYFIYFKY; Description of Artificial Sequence: Cyclic peptide) [compound 148] | A (0.7 or more)
38 | 149 (RCEENYLDPEQYQYFIYFKY; Description of Artificial Sequence: Cyclic peptide) [compound 149] | A (0.7 or more)

Row | Substance | Evaluation result of binding affinity to FGFR
39 | 150 (HCEENYLDPEQYQYFIYFK(COCH2)Y; thioether 2-19 (inferred)) [compound 150] | A (0.7 or more)
40 | 151 (YCGENYLDPEQYQYFIYFK(COCH2)Y; thioether 2-19 (inferred)) [compound 151] | A (0.7 or more)
41 | 152 (YCPENYLDPEQYQYFIYFK(COCH2)Y; thioether 2-19 (inferred)) [compound 152] | A (0.7 or more)
42 | 153 (YCLENYLDPEQYQYFIYFK(COCH2)Y; thioether 2-19 (inferred)) [compound 153] | A (0.7 or more)
43 | 154 (YCIENYLDPEQYQYFIYFK(COCH2)Y; thioether 2-19 (inferred)) [compound 154] | A (0.7 or more)
44 | 155 (YCVENYLDPEQYQYFIYFK(COCH2)Y; thioether 2-19 (inferred)) [compound 155] | A (0.7 or more)
45 | 156 (YCFENYLDPEQYQYFIYFK(COCH2)Y; thioether 2-19 (inferred)) [compound 156] | A (0.7 or more)
46 | 157 (YCYENYLDPEQYQYFIYFK(COCH2)Y; thioether 2-19 (inferred)) [compound 157] | A (0.7 or more)
47 | 158 (YCWENYLDPEQYQYFIYFK(COCH2)Y; thioether 2-19 (inferred)) [compound 158] | A (0.7 or more)
48 | 159 (YCNENYLDPEQYQYFIYFK(COCH2)Y; thioether 2-19 (inferred)) [compound 159] | A (0.7 or more)
49 | 160 (YCQENYLDPEQYQYFIYFK(COCH2)Y; thioether 2-19 (inferred)) [compound 160] | A (0.7 or more)
50 | 161 (YCSENYLDPEQYQYFIYFK(COCH2)Y; thioether 2-19 (inferred)) [compound 161] | A (0.7 or more)
51 | 162 (YCTENYLDPEQYQYFIYFK(COCH2)Y; thioether 2-19 (inferred)) [compound 162] | A (0.7 or more)
52 | 163 (YCDENYLDPEQYQYFIYFK(COCH2)Y; thioether 2-19 (inferred)) [compound 163] | A (0.7 or more)
53 | 164 (YCRENYLDPEQYQYFIYFK(COCH2)Y; thioether 2-19 (inferred)) [compound 164] | A (0.7 or more)
54 | 165 (YCHENYLDPEQYQYFIYFK(COCH2)Y; thioether 2-19 (inferred)) [compound 165] | A (0.7 or more)
55 | 166 (YCEGNYLDPEQYQYFIYFK(COCH2)Y; thioether 2-19 (inferred)) [compound 166] | A (0.7 or more)
56 | 167 (YCEPNYLDPEQYQYFIYFK(COCH2)Y; thioether 2-19 (inferred)) [compound 167] | A (0.7 or more)
57 | 168 (YCELNYLDPEQYQYFIYFK(COCH2)Y; thioether 2-19 (inferred)) [compound 168] | A (0.7 or more)
